What all share (assay): SEC; HPLC-SEC on a bioZen 1.8 µm SEC-3 column in 150 mM KPi, pH 6.8; absorbance at 280 nm and 655 nm; samples after clicking with BCN-649, in vitro phosphopantetheinylation and purification over Ni-NTA magnetic beads
On the technique in general: In gel filtration, larger molecules generally elute earlier.

Assay [1] concerns the target full-length mFAS mutant Gly2113AzPhe (mouse) (UniProt P19096).
The target in assay [2] is murine fatty acid synthase type I, wild type, full-length (mouse) (UniProt P19096). The settings on record: remark: other sources report otherwise.
The target in assay [3] is full-length mFAS mutant Gly2113AzPhe with additional ACP knock-out mutation Ser2150Ala (mouse) (UniProt P19096).

Three substances from paper PMC6173736 can be followed below.

As a reminder, the stoichiometry N is a count of units in the complex or per binding partner.

Sequence of full-length mFAS mutant Gly2113AzPhe with additional ACP knock-out mutation Ser2150Ala (P19096 1-2112, change not shown): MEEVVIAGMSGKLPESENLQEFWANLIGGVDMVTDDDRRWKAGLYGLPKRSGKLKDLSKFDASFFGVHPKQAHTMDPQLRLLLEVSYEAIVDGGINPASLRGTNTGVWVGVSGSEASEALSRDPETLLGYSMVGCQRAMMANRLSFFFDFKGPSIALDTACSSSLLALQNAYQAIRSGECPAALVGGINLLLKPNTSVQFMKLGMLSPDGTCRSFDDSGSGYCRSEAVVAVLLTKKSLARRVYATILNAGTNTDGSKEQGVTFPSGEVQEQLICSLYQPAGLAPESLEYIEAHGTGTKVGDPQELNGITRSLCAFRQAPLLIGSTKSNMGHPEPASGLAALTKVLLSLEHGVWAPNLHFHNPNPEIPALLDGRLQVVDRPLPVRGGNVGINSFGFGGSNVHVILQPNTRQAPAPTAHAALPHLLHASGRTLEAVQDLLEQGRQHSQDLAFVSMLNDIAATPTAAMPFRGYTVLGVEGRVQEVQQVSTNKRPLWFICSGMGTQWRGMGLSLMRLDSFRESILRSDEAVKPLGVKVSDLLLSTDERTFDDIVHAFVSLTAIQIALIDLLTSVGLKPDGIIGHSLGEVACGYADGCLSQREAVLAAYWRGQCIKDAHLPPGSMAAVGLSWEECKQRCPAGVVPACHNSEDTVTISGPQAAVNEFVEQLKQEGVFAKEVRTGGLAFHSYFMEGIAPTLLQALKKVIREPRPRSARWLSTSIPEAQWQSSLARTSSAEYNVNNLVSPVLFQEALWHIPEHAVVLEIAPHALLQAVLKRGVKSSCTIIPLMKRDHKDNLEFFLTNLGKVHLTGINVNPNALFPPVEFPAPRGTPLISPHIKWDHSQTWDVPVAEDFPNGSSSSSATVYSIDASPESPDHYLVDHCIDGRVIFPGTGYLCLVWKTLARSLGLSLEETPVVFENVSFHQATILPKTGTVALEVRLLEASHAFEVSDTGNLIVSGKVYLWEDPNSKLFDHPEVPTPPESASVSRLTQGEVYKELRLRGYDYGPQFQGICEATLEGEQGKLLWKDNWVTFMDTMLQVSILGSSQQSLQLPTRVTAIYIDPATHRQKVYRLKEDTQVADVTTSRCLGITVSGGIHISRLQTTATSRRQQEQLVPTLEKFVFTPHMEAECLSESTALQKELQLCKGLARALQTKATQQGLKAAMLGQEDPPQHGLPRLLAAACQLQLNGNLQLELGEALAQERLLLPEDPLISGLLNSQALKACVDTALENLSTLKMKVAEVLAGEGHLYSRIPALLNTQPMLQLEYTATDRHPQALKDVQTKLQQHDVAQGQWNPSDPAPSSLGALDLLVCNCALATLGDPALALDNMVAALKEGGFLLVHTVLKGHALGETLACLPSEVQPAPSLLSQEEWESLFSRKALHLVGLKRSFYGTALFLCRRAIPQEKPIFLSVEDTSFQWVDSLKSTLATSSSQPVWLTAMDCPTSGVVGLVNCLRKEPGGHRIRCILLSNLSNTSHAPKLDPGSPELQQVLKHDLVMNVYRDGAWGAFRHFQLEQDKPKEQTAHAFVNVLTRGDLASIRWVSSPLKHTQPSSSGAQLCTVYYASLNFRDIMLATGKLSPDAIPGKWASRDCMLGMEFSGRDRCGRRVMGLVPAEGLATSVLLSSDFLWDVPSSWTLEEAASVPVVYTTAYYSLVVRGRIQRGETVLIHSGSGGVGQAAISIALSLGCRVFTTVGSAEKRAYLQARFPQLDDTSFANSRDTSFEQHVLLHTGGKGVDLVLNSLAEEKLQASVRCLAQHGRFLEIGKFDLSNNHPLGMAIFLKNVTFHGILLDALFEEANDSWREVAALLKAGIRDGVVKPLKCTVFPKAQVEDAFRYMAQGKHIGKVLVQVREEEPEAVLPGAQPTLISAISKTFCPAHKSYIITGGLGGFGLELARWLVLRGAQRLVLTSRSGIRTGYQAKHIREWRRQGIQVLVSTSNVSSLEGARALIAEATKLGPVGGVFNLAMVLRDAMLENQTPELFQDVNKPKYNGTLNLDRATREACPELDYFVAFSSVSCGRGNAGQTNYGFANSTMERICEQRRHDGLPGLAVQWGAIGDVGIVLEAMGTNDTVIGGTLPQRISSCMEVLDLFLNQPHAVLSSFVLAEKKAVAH

As for “full-length mFAS mutant Gly2113AzPhe (from UniProt P19096 1-2504) (enzyme)”, the stoichiometry N in assay [1] was 2.

Regarding “murine fatty acid synthase type I, wild type, full-length, P19096 1-2504”, in assay [2], the stoichiometry N was 2. In the case of “full-length mFAS mutant Gly2113AzPhe with additional ACP knock-out mutation Ser2150Ala (from UniProt P19096 1-2504) (enzyme)”, in assay [3], the stoichiometry N is 2.
